PMC12106674
pKd: −log10 of the molar value.

How the values were obtained:
[1] = biological target: recombinant biotinylated human FcRn (Immunitrack) (human) (UniProt P55899); assay: SPR; biotinylated human FcRn (~100 RU) captured on an SA sensor chip; 2-fold serial dilutions of albumin variants or GLP-1 albumin fusions injected in duplicates; pH 5.5 PBS (177 mM phosphate, 85 mM NaCl, 0.05% Tween 20), 25 °C, 40 µL/min; 1:1 Langmuir model
[2] = biological target: human GLP-1 receptor (GLP-1R) on reporter cells (human) (UniProt P43220)
Sequence of UniProt P43220 (P43220 24-463): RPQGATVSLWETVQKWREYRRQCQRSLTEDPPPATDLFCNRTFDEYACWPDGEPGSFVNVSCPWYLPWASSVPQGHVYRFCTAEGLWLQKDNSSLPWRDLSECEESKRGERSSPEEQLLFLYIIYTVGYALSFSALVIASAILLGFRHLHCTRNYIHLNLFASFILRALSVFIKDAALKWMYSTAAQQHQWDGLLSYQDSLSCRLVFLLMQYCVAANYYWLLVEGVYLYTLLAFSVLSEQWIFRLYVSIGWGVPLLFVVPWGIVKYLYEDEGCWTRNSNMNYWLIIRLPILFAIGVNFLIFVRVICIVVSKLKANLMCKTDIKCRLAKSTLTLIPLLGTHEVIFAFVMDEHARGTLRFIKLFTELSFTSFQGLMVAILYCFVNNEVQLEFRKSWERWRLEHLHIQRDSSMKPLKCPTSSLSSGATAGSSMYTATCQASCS

[3] = biological target: human FcRn of the human FcRn Affinity Column (Roche) (human) (UniProt P55899); assay: analytical FcRn affinity chromatography; human FcRn Affinity Column (Roche); albumin or GLP-1 albumin fusions (2 mg/mL) loaded at pH 5.5 and eluted by a pH gradient from 5.5 (20 mM MES/HCl, 140 mM NaCl) to 8.8 (20 mM Tris/HCl, 140 mM NaCl), 0.5 mL/min, 110 min, room temperature
[4] = biological target: recombinant biotinylated human FcRn (Immunitrack) (human) (UniProt P55899)
[5] = biological target: recombinant biotinylated human FcRn (Immunitrack) (human) (UniProt P55899); remark: listed apart in the source
[6] = biological target: recombinant biotinylated human FcRn (Immunitrack) (human) (UniProt P55899); remark: listed apart in the source

| pKd [1] | koff [1] | kon [1] | EC50 of luciferase signal in human GLP-1R reporter cells (0.08–6250 nM, 23 h) [2] | elution pH [3] | plasma half-life after IV injection in hemizygous human FcRn Tg32 mice [4] | EC50 of luciferase signal in human GLP-1R reporter cells (0.00062–50 nM, 23 h) [2] | cellular recycling in HERA with HMEC-1-FcRn cells (800 nM), relative to GLP-1 WT [5] | plasma half-life after IV injection in homozygous human FcRn Tg32 mice (GLP-1 WT: 1.3 days) [6] | Substance |
| --- | --- | --- | --- | --- | --- | --- | --- | --- | --- |
| 6.22 | 0.0175 s⁻¹ | 29000 M⁻¹ s⁻¹ | – | – | – | – | – | – | human albumin L585I (natural protein) |
| 9.70 | – | – | – | – | – | – | – | – | GLP-1 QMP/LX (GLP-1 albumin fusion with QMP-engineered albumin lacking L585) |
| 6.94 | – | – | 50 nM | 6.7 pH | – | – | – | – | GLP-1 WT (albiglutide-mimic; two GLP-1(7-36) A2G in tandem fused to the N-terminus of human WT albumin) (from UniProt P02768 25-609) |
| 9.05 | 0.0001 s⁻¹ | 115000 M⁻¹ s⁻¹ | – | – | 103 h | – | – | – | QMP variant recombinantly expressed without the L585 residue (QMP/LX) (natural protein) |
| 6.16 | 0.0233 s⁻¹ | 34000 M⁻¹ s⁻¹ | – | – | – | – | – | – | human albumin L585V (natural protein) |
| – | – | – | – | – | – | 0.28 nM | – | – | unfused GLP-1(7–36) included in the reporter assay kit (peptide) |
| 6.29 | 0.0221 s⁻¹ | 43000 M⁻¹ s⁻¹ | – | 6.3 pH | – | – | 2 fold less | 21.6 h | GLP-1 LX (GLP-1 albumin fusion with WT albumin lacking L585) |
| 9.52 | 4e-05 s⁻¹ | 144000 M⁻¹ s⁻¹ | – | – | 108 h | – | – | – | QMP-engineered human albumin (E505Q, T527M, K573P), full-length (natural protein) |
| > 10.52 | < 1e-05 s⁻¹ | 381000 M⁻¹ s⁻¹ | 44.4 nM | 7.8 pH | – | – | 4.5 fold | 64.8 h | GLP-1 QMP (GLP-1 albumin fusion with QMP-engineered albumin) |
| 6.17 | 0.0197 s⁻¹ | 29000 M⁻¹ s⁻¹ | – | – | – | – | – | – | human albumin L585M (natural protein) |
| 7.12 | – | – | – | 6.9 pH | – | – | – | – | Tanzeum (albiglutide) (from UniProt P02768 25-609) |
